According to the DeepSol protein solubility set:

test: soluble on expression in E. coli; label from the status in PepcDB or PDB records

| Sequence | soluble on expression in E. coli |
| --- | --- |
| MDLWKLYQPGTPAAIVAWGQLGTAHAKTTYGLLRHSRLFKPVCVVAEHEGKMASDFVKPVRYDVPVVSSVEKAKEMGAEVLIIGVSNPGGYLEEQIATLVKKALSLGMDVISGLHFKISQQTEFLKIAHENGTRIIDIRIPPLELDVLRGGIYRKKIKVVGVFGTDCVVGKRTTAVQLWERALEKGIKAGFLATGQTGILIGADAGYVIDAVPADFVSGVVEKAVLKLEKTGKEIVFVEGQGALRHPAYGQVTLGLLYGSNPDVVFLVHDPSRDHFESFPEIPKKPDFEEERRLIETLSNAKVIGGVSLNGGFETDLPVYDPFNTDDLDEMLERAMVW | not soluble |
| MDMSLAEDAQETMATLAPDRFFFMSPYRSFTTSGCFARYTEPAVAGDSPDSPFQQKLRQQFAEAKSQGIANPILVGAIPFDTRQPSSLFIPMAWQSFSRQQKQRTARYFTDHQSLTVTARKAIPEQDAFEAMVARAAMLTATPDVDKVVLSRLIDITTDVAVDSGALLERLVAQNPVSYNFHVPLADGGVLLGASPELLLRKEGERFSSLPLAGSARRQPDDVLDREAGNRLLASQKDRHEHELVTQAMKQILRDRSTELQLPSSPQLITTPTLWHLGTPFEGKANAGENALTLACLLHPTPALSGFPHQVAKKLIAELEPFDRELFGGIVGWCDAEGNGEWVVTIRCAKLHGNQVRLFAGAGIVPASSPVGEWRETGVKLSTMLNVFGLH | soluble |
| MDNDRDTVEFWSSLFQSFADSEPKDNPYPVVRSPIMTMSTPMAIDEPVEPWKVLEYGGKEVRPMAIDEPAEPWKALEYGGKDVRPMAIDVPAEPWKVGGKEAQPANAAAEAGYKNVNTDQEKSTQKATEKVIM | soluble |
| MDNKIVYVVSDSVGETADLVVRAAMGQFPFAPDIRRVPYVEDTGTLKEVISIAKSNQALICFTLVKPDMRQYLVTEAAKEGVEAYDIIGPLIDQIEEITGQVPRYEPGVVRRLDEEYFKKIEAIEFAVKYDDGRDARGILKADIVLIGVSRTSKTPLSQYLAHNKRLKVANVPLVPEVDPPEELYQVAKEKCFGLKITPDKLNHIRKERLKSLGLSDGATYANINRIQEEIDHFEEVISRINCQVIDVSNKAIEETANIIVNAVQNQKMF | not soluble |
| MDNNEKEKSKSELLVVTGLSGAGKSLVIQCLEDMGYFCVDNLPPVLLPKFVELMEQGNPSLRKVAIAIDLRGKELFNSLVAVVDKVKSESDVIIDVMFLEASTEKLISRYKETRRAHPLMEQGKRSLINAINDEREHLSQIRSIANFVIDTTKLSPKELKERIRRYYEDEEFETFTINVTSFGFKHGIQMDADLVFDVRFLPNPYYVVDLRPLTGLDKDVYNYVMKWKETEIFFEKLTDLLDFMIPGYKKEGKSQLVIAIGCTGGQHRSVALAERLGNYLNEVFEYNVYVHHRDAHIESGEKK | not soluble |
| MDNYQEITRYLDNAREILSTKANKEGQFYKDIKYVQMASGTAYNAALMIADEYLRKKEGAKFTKPNSIDEYRVRLNKHNKTLLAYLNRAYDMLHLAGYYHGTPSVGTIKQGMEAAQKMLALIEH | soluble |
| MDPKAEGNGENITETAAGNVETSDFVNLKRQKREGVNSTGMSEIDMTGSQETPEHNMHGSPTHTDDLGPRLDADMLDSQSSHVSSSAQGNRSEVENELSNLFAKMALPGHDRRTDEYILVRQTGQDKFAGTTKCNLDHLPTKAEFNASCRLYRDGVGNYYPPPLAFERIDLPEQLAAQLHNLEPREQSKQCFQYKLEVWNRAHAEMGITGTDIFYQTDKNIKLDRNYKLRPEDRYIQTEKYGRREIQKRYEHQFQAGSLLPDILIKTPQNDIHFSYRFAGDAYANKRFEEFERAIKTKYGSDTEIKLKSKSGIMHDSKYLESWERGSADIRFAEFAGENRAHNKQFPAATVNMGRQPDGQGGMTRDRHVSVDYLLQNLPNSPWTQALKEGKLWDRVQVLARDGNRYMSPSRLEYSDPEHFTQLMDQVGLPVSMGRQSHANSVKFEQFDRQAAVIVADGPNLREVPDLSPEKLQQLSQKDVLIADRNEKGQRTGTYTNVVEYERLMMKLPSDAAQLLAEPSDRYSRAFVRPEPALPPISDSRRTYESRPRGPTVNSL | soluble |
| MDQAQRFLRQHPEHADLRIWGLNAFDPSQGNLLLPRLEWRRCGGKATLRLTLFSESSLQHDAIQAKEFIATLVSIKPLPGLHLTTTREQHWPDKTGWTQLIELATKTIAEGELDKVVLARATDLHFASPVNAAAMMAASRRLNLNCYHFYMAFDGENAFLGSSPERLWRRRDKALRTEALAGTVANHPDDKQAQQLGEWLMADDKNQRENMLVVEDICQRLQADTQTLDVLPPQVLRLRKVQHLRRCIWTSLNKADDVICLHQLQPTAAVAGLPRDLARQFIARHEPFTREWYAGSAGYLSLQQSEFCVSLRSAKISGNVVRLYAGAGIVRGSDPEQEWQEIDNKAAGLRTLLQME | not soluble |
| MDQKSTTCLEALAKLSQQREHQTTPATLCSSEHFFANETIYSDATFLSTTEEAFISSPSSSTQGPKPGLKRVSTGPMTRILEGCQNDKPNSPELERVEEAEDNYSGTSSEEAFSQGIPYPHQVGGHGALSSFERGRVLKPAAKKEIDFYNFIYSDNLPSELEWLRTVTPKYFGQRKTQAKAKRILENQVTPFSQTSSVPVNTVLHIDRKDSERNIWKDQVGELVMDTNPWARACLLKELQKEDEVKSFIILEDLTCHLKKPCVLDCKMGTRHYDDDATEEKKKAHIEKATKTTSSSTGIRFTGMQVYKLPSHTFLFHDKYYGRQLKSHELKNELFEFFHNGVLLRVDIIEQFLSKLQWLYQHLENQHYFNFYSSSLLFVYEGDEMATCPISDVRMIDFAHTQRCVEEQQNDGYLFGLSNLIHLMKSLLEDERNEMR | soluble |
| MDRFELLGPLPREGTTTVLEASAGTGKTFALAGLVTRYLAETAATLDEMLLITFNRAASRELRERVRGQIVEAVGALQGDAPPSGELVEHLLRGSDAERAQKRSRLRDALANFDAATIATTHEFCGSVLKSLGVAGDNAADVELKESLTDLVTEIVDDRYLANFGRQETDPELTYAEALALALAVVDDPCAQLRPPDPEPGSKAAVRLRFAAEVLEELERRKGRLRAQGFNDLLIRLATALEAADSPARDRMRERWRIVLVDEFQDTDPMQWRVLERAFSRHSALILIGDPKQAIYGFRGGDIHTYLKAAGTADARYTLGVNWRSDRALVESLQTVLRDATLGHADIVVRGTDAHHAGHRLASAPRPAPFRLRVVKRHTLGYDGTAHVPIEALRRHIPDDLAADVAALLASGATFAGRPVVAADIAVIVEHHKDARACRNALAEAGIPAIYTGDTDVFASQAAKDWLCLLEAFDAPQRSGLVRAAACTMFFGETAESLAAEGDALTDRVAGTLREWADHARHRGVAAVFQAAQLAGMGRRVLSQRGGERDLTDLAHIAQLLHEAAHRERLGLPGLRDWLRRQAKAGAGPPEHNRRLDSDAAAVQIMTVFVAKGLQFPIVYLPFAFNRNVRSDDILLYHDDGTRCLYIGGKDGGAQRRTVEGLNRVEAAHDNLRLTYVALTRAQSQVVAWWAPTFDEVNGGLSRLLRGRRPGQSQVPDRCTPRVTDEQAWAVFAQWEAAGGPSVEESVIGARSSLEKPVPVPGFEVRHFHRRIDTTWRRTSYSDLVRGSEAVTVTSEPAAGGRADEVEIAVVAAPGSGADLTSPLAALPSGASFGSLVHAVLETADPAAPDLAAELEAQVRRHAPWWTVDVDHAQLAPELARALLPMHDTPLGPAAAALTLRQIGVRDRLRELDFEMPLAGGDLRGRSPDVSLADVGELLASHLPGDDPLSPYADRLGSAGLGDQPLRGYLAGSIDVVLRLPGQRYLVVDYKTNHLGDTAADYGFERLTEAMLHSDYPLQALLYVVVLHRFLRWRQRDYAPARHLGGVLYLFVRGMCGAATPVTAGHPAGVFTWNPPTALVVALSDLLDRGRLQS | soluble |
| MDRNPSEPERIDWKNPITWISYLYTSFVYYLWLISSHLPHLPQPQRITDDKSTEQITRDAGIPRTEIVTRGDATQTVRQVAGLGDPAPKDSSLLPPSSSFVYCNNCLTPHSSQRTCSPAYVSTLSRQKSLTLLKKLKKPSSSASSTTTTTSSTVSFRAPSRASSTISDASTIRPSELIAIVPSGSHVLLRVPKLDWKTESIRIKRTRMSDWMDAEQRDVMRQFDEVIRSEEEDERTSRKRNGIFKDGSVRSIESLESRSRSKETPVFVPPPPPPTDAMPYLPRLAELNKGTPDQEFGFNLHAERGRGHFIGTVDAGGIGEKAGLEAGQRIVGVNGQLIYPTTGHKEVVALIKKDTMKTTLLVASEDVDKYHKDHNIAYSWDNVERVDTRPVINVETHHHHEEVSVPKSNGYDVPPLNPHSIQVNEEREISKMTTTTRTETITNSNSAYQYKESSTAYDAYATPPVDSNDLMDEVFGRVNLPGVTMSSHTEVLPPTDDISSVSSLSSHRESAVDVPVSHQYVPSYATESHQKHEQHSQTHHHHHQHQQPSPLSNGSSHGYAASSTSGYDDDDIYHLSAREARERLRMKNRKHHLHEMSLNEKYQLVSNM | not soluble |
